Measurements as given in US20230348629A1.

Biological target: human TIGIT on HEK293A/human TIGIT cells (human) (UniProt Q495A1)
Test: cell-based or functional assay

Chain of human TIGIT on HEK293A/human TIGIT cells (human) (Q495A1 22-244 limits assumed): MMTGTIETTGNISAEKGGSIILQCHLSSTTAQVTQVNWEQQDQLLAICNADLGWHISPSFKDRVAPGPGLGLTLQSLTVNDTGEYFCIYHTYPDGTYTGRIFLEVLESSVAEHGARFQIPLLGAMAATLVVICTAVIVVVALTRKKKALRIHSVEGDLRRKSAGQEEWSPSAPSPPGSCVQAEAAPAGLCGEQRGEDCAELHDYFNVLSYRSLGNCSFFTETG

- EC50, NK92 (NK92MI-CD16a) cell-mediated ADCC, LDH release: 0.511 nM
Substance: Tiragolumab (antibody)
- EC50, PBMC-mediated ADCC, death rate of GFP+ cells by FACS: 0.311 nM
